Molecular target: T1, HIV-1 JRFL envelope (Env, gp120-gp41) on HIV-1 JRFL pseudovirions (HIV-1 JR-FL, UniProt Q75760, strain)
T1 construct: also called HIV-1 JRFL virions; tier-2 JRFL pseudovirus; copies: 3 + 3
Assay: FRET or BRET + other: fluorescence correlation spectroscopy (FRET-FCS); all reactants in solution; donor (Alexa 488) and acceptor (Alexa 568) labelled Fabs with virions at 10 μg/ml (about 1.5 virions in the 1 fL focal volume); FRET bursts and diffusion coefficient of the acceptor channel (6 μm^2/s for virion-bound Fab)
Conditions: one partner purified

B1: 2G12 Fab, Alexa 488- or Alexa 568-labelled (Fab, V domains shown)
VH: EVQLVESGGGLVKAGGSLILSCGVSNFRISAHTMNWVRRVPGGGLEWVASISTSSTYRDYADAVKGRFTVSRDDLEDFVYLQMHKMRVEDTAIYYCARKGSDRLSDNDPFDAWGPGTVVTVSP
VL: DVVMTQSPSTLSASVGDTITITCRASQSIETWLAWYQQKPGKAPKLLIYKASTLKTGVPSRFSGSGSGTEFTLTISGLQFDDFATYHCQHYAGYSATFGQGTRVEIK
- binding result: binds
